Experimental data from publication PMC3624071 (Biochemistry, 2013).

Legend:
[1] = target: T1, EutB subunit of ethanolamine ammonia-lyase (EAL) from the EALH6 construct (S. typhimurium, UniProt P19264 1-453); assay: pull-down
T1 sequence: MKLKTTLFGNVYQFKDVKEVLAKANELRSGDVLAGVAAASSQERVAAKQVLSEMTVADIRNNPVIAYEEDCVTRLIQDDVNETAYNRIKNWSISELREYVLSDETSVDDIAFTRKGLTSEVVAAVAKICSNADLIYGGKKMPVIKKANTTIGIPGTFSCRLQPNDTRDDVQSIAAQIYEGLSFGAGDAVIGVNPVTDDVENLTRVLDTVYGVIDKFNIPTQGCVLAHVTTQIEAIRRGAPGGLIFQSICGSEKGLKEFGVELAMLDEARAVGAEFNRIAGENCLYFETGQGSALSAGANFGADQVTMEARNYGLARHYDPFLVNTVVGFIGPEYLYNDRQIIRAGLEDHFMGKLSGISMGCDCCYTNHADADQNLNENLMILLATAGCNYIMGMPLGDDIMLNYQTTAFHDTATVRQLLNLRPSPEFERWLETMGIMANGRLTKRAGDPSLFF

[2] = target: T1, EutB subunit of ethanolamine …; assay: pull-down; remark: listed apart in the source

B1: EutC subunit of ethanolamine ammonia-lyase (EAL) from the EALH6 construct (natural protein)
chain: MDQKQIEEIVRSVMASMGQDVPQPAAPSTQEGAKPQCAAPTVTESCALDLGSAEAKAWIGVENPHRADVLTELRRSTAARVCTGRAGPRPRTQALLRFLADHSRSKDTVLKEVPEEWVKAQGLLEVRSEISDKNLYLTRPDMGRRLSPEAIDALKSQCVMNPDVQVVVSDGLSTDAITANYEEILPPLLAGLKQAGLNVGTPFFVRYGRVKIEDQIGEILGAKVVILLVGERPGLGQSESLSCYAVYSPRVATTVEADRTCISNIHQGGTPPVEAAAVIVDLAKRMLEQKASGINMTR
B1 was tested, and the “subunit molar ratio after elution with 250 mM imidazole” value [1] was 0.32 mol EutC per mol EutB and the “stoichiometry N” value [2] was 1.01 mol EutC per mol EutB.
